The values that follow are results of earlier work, collected in article PMC4755228.

As usually defined, the Kd is the equilibrium constant for the complex coming apart.

This data set addresses CD38 (Homo sapiens) (UniProt P28907). Put plainly: BIAcore SPR. On the technique in general: SPR reads the build-up and loss of mass on a sensor chip optically.

Turning to daratumumab, the Kd was 4.36 nM.
